Source: patent publication US20250332238
Residue numbers refer to the chain shown, from its start. In names and notes the source's numbering stands.

Legend:
[1] = target: T1, TRMT112 (KMT9beta; tRNA methyltransferase subunit 11-2, isoform 2, Homo sapiens)
T1 chain: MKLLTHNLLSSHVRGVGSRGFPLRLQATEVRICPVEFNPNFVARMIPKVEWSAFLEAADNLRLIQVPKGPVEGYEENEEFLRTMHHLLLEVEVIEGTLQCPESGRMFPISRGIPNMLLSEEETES

[2] = target: mutant histone H4 where K12 was changed to alanine (H4K12A), P62805

B1: C21orf127 (KMT9alpha; N-6 adenine-specific DNA methyltransferase 1, isoform 1, Homo sapiens) (protein)
chain: MAGENFATPFHGHVGRGAFSDVYEPAEDTFLLLDALEAAAAELAGVEICLEVGSGSGVVSAFLASMIGPQALYMCTDINPEAAACTLETARCNKVHIQPVITDLVKGLLPRLTEKVDLLVFNPPYVVTPPQEVGSHGIEAAWAGGRNGREVMDRFFPLVPDLLSPRGLFYLVTIKENNPEEILKIMKTKGLQGTTALSRQAGQETLSVLKFTKS
HMT activity (methylation assay) [1]: only the C21orf127/TRMT112 heterodimer displayed HMT activity

B2: C21orf127(Y125A)/TRMT112 complex (protein)
chain 1: B1 chain with Y125A
chain 2: T1 chain
methylation of H4K12 (methylation assay) (histone H4, P62805): resulted in methylation of H4K12, but not ETF1 by the mutant C21orf127(Y125A)/TRMT112 complex | methylation of ETF1 (methylation assay) (ETF1, P62495): resulted in methylation of H4K12, but not ETF1 by the mutant C21orf127(Y125A)/TRMT112 complex

B3: C21orf127/TRMT112 heterodimer (KMT9) (protein)
chain 1: B1 chain
chain 2: T1 chain
in vitro methylation assay with SAM [3H] (FIG. 1A, FIG. 1B) (histone H4, P62805): wild-type H4 protein, but not mutant H4 where K12 was changed to an alanine (A) residue (H4K12A), was methylated | in vitro methylation assay with SAM [3H] (FIG. 1B) [2]: wild-type H4 protein, but not mutant H4 where K12 was changed to an alanine (A) residue (H4K12A), was methylated
